Measured values taken from PMC8316464.

Assays:
Test in all cases: SPR; Biacore S200; Bcl-2 family proteins immobilised on CM5 (amine coupling or His-Capture Kit); peptides and flag-tagged proteins as analytes, single-cycle kinetics, HBS-EP, 25 °C; 1:1 Langmuir model; absence of binding probed at 100 nM and 3 µM
Bcl-xL (human) = Bcl-xL (human) (UniProt Q07817)
Bcl-2 (human) = Bcl-2 (human) (UniProt P10415)
[1] = biological target: His-tagged human Mcl-1 (human) (UniProt Q07820)
Sequence of His-tagged human Mcl-1 (human) (Q07820 whole entry): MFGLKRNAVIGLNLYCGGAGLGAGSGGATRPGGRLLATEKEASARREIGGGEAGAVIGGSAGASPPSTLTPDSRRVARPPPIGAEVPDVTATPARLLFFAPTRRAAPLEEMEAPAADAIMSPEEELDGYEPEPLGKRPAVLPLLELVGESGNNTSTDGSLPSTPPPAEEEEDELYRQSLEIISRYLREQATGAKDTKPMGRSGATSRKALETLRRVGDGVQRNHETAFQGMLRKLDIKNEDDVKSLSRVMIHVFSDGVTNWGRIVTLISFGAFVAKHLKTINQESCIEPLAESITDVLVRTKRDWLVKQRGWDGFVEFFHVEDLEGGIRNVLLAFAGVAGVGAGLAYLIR

Sequence of Bcl-xL (human) (Q07817 whole entry): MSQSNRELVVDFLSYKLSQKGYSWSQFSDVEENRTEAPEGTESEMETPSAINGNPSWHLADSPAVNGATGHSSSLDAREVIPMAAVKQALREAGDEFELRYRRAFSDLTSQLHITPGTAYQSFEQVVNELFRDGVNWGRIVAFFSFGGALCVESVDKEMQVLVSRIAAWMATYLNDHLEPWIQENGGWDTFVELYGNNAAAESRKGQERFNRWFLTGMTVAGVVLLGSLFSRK

Kd (Bcl-xL (human)) [nM] | Kd (Bcl-2 (human)) [nM] | Kd [1] [nM] | Binder
7.12 | 96.7 | 12.8 | ESQEDIIRNIARHLAQVGDSMDRSI [Bid BH3 peptide (25-mer, residues 77-101)]
28.5 | 158 |  | ESQEDIIRNIIRHLAQVGDSMDRSI [Bid (A87I) peptide]
